This assay addresses T1, full-length human Apaf-1 (residues 1–1248) (human), O14727.
T1 chain: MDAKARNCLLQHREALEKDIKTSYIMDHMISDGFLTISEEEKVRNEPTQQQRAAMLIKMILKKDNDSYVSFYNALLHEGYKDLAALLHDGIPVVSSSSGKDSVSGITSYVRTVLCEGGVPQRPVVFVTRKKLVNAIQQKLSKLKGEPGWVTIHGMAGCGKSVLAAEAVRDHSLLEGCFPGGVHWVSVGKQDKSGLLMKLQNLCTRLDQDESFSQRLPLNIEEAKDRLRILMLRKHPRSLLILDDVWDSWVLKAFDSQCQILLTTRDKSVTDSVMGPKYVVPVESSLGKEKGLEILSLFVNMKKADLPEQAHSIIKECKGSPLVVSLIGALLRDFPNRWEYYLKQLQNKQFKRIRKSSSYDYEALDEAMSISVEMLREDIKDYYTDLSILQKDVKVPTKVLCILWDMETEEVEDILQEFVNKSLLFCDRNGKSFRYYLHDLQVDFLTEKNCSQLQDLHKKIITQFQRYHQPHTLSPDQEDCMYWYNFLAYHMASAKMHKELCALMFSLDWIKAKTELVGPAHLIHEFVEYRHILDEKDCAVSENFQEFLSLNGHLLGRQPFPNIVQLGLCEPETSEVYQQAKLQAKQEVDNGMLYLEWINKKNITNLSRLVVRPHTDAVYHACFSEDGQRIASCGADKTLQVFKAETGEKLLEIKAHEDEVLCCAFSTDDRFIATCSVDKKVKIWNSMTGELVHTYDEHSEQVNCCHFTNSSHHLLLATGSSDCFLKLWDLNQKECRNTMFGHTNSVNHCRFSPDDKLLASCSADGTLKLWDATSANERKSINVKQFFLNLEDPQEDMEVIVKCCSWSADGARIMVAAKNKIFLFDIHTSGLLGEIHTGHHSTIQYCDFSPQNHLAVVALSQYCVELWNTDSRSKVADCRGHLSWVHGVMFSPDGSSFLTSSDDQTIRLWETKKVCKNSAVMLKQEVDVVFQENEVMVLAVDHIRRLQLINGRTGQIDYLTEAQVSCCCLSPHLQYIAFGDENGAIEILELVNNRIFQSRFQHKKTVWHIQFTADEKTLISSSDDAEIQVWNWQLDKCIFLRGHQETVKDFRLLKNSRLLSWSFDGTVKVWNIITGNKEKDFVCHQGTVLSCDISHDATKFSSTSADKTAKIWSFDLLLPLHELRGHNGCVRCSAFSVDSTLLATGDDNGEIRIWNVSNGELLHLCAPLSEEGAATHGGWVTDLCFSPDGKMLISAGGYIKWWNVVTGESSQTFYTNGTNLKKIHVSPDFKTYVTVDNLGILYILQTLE
The assay can be described thus: cryo-EM structure; apoptosome assembled from full-length Apaf-1 with horse CytC (Sigma) at ~1:2 and 1 mM dATP; ~5 μM on grids; 3.8 Å overall, ~5 Å in the spokes after local masking. As to conditions: remark: other sources report otherwise.

B1: full-length human Apaf-1 (residues 1–1248), O14727 1-1248 (natural protein)
chain: MDAKARNCLLQHREALEKDIKTSYIMDHMISDGFLTISEEEKVRNEPTQQQRAAMLIKMILKKDNDSYVSFYNALLHEGYKDLAALLHDGIPVVSSSSGKDSVSGITSYVRTVLCEGGVPQRPVVFVTRKKLVNAIQQKLSKLKGEPGWVTIHGMAGCGKSVLAAEAVRDHSLLEGCFPGGVHWVSVGKQDKSGLLMKLQNLCTRLDQDESFSQRLPLNIEEAKDRLRILMLRKHPRSLLILDDVWDSWVLKAFDSQCQILLTTRDKSVTDSVMGPKYVVPVESSLGKEKGLEILSLFVNMKKADLPEQAHSIIKECKGSPLVVSLIGALLRDFPNRWEYYLKQLQNKQFKRIRKSSSYDYEALDEAMSISVEMLREDIKDYYTDLSILQKDVKVPTKVLCILWDMETEEVEDILQEFVNKSLLFCDRNGKSFRYYLHDLQVDFLTEKNCSQLQDLHKKIITQFQRYHQPHTLSPDQEDCMYWYNFLAYHMASAKMHKELCALMFSLDWIKAKTELVGPAHLIHEFVEYRHILDEKDCAVSENFQEFLSLNGHLLGRQPFPNIVQLGLCEPETSEVYQQAKLQAKQEVDNGMLYLEWINKKNITNLSRLVVRPHTDAVYHACFSEDGQRIASCGADKTLQVFKAETGEKLLEIKAHEDEVLCCAFSTDDRFIATCSVDKKVKIWNSMTGELVHTYDEHSEQVNCCHFTNSSHHLLLATGSSDCFLKLWDLNQKECRNTMFGHTNSVNHCRFSPDDKLLASCSADGTLKLWDATSANERKSINVKQFFLNLEDPQEDMEVIVKCCSWSADGARIMVAAKNKIFLFDIHTSGLLGEIHTGHHSTIQYCDFSPQNHLAVVALSQYCVELWNTDSRSKVADCRGHLSWVHGVMFSPDGSSFLTSSDDQTIRLWETKKVCKNSAVMLKQEVDVVFQENEVMVLAVDHIRRLQLINGRTGQIDYLTEAQVSCCCLSPHLQYIAFGDENGAIEILELVNNRIFQSRFQHKKTVWHIQFTADEKTLISSSDDAEIQVWNWQLDKCIFLRGHQETVKDFRLLKNSRLLSWSFDGTVKVWNIITGNKEKDFVCHQGTVLSCDISHDATKFSSTSADKTAKIWSFDLLLPLHELRGHNGCVRCSAFSVDSTLLATGDDNGEIRIWNVSNGELLHLCAPLSEEGAATHGGWVTDLCFSPDGKMLISAGGYIKWWNVVTGESSQTFYTNGTNLKKIHVSPDFKTYVTVDNLGILYILQTLE
Broadly, the stoichiometry N is the number of molecules, sites or subunits per partner or assembly. The molecule B1 came in with a stoichiometry N of 7.

For the origin of these results see PMC4691890.
